{
  "source": "the supplement of paper PMC9112550",
  "about": "“Optimization of the antimicrobial peptide Bac7 by deep mutational scanning” (BMC Biology, 2022);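 note: peptides expressed intracellularly from a pBAD plasmid library in pooled LB shake-flask culture, induced with 0.3% L-arabinose, DNA abundance read by NGS, three biological replicates, DESeq2 with apeglm shrinkage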",
  "data": [
    {"tested_on": "Escherichia coli TOP10", "experiment": "shrunken log2 fold change of peptide-encoding DNA abundance (4.5 h post-induction vs induction); higher = less antimicrobial activity (less host growth inhibition)", "conditions": "time post-induction: 4.5 h; library: site-saturation at positions 5, 18, 19, 20", "values": [
      {"sequence": "RRIRFRPPRLPRPRPRPQAVPRP", "shrunken log2 fold change": 0.0175},
      {"sequence": "RRIRQRPPRLPRPRPRPQYGPRP", "shrunken log2 fold change": -0.0763},
      {"sequence": "RRIRYRPPRLPRPRPRPWERPRP", "shrunken log2 fold change": 0.0306},
      {"sequence": "RRIRYRPPRLPRPRPRPQLVPRP", "shrunken log2 fold change": -0.045},
      {"sequence": "RRIRYRPPRLPRPRPRPYDWPRP", "shrunken log2 fold change": -0.886},
      {"sequence": "RRIRCRPPRLPRPRPRPCQEPRP", "shrunken log2 fold change": -0.108},
      {"sequence": "RRIRHRPPRLPRPRPRPMTHPRP", "shrunken log2 fold change": -0.235},
      {"sequence": "RRIRERPPRLPRPRPRPGYLPRP", "shrunken log2 fold change": -0.426},
      {"sequence": "RRIRKRPPRLPRPRPRPDDIPRP", "shrunken log2 fold change": 0.0454},
      {"sequence": "RRIRDRPPRLPRPRPRPQQDPRP", "shrunken log2 fold change": 0.0798},
      {"sequence": "RRIRLRPPRLPRPRPRPQALPRP", "shrunken log2 fold change": -0.042},
      {"sequence": "RRIRIRPPRLPRPRPRPTWDPRP", "shrunken log2 fold change": 0.372},
      {"sequence": "RRIRFRPPRLPRPRPRPWDCPRP", "shrunken log2 fold change": 0.00208},
      {"sequence": "RRIRMRPPRLPRPRPRPEGRPRP", "shrunken log2 fold change": 3.21},
      {"sequence": "RRIRNRPPRLPRPRPRPACEPRP", "shrunken log2 fold change": 0.172},
      {"sequence": "RRIRLRPPRLPRPRPRPLATPRP", "shrunken log2 fold change": 0.38},
      {"sequence": "RRIRYRPPRLPRPRPRPQYKPRP", "shrunken log2 fold change": -0.179},
      {"sequence": "RRIRQRPPRLPRPRPRPYEHPRP", "shrunken log2 fold change": 0.00367},
      {"sequence": "RRIRNRPPRLPRPRPRPRQSPRP", "shrunken log2 fold change": 0.112},
      {"sequence": "RRIRARPPRLPRPRPRPPHAPRP", "shrunken log2 fold change": 0.964},
      {"sequence": "RRIRGRPPRLPRPRPRPHGGPRP", "shrunken log2 fold change": 0.631},
      {"sequence": "RRIRWRPPRLPRPRPRPMTNPRP", "shrunken log2 fold change": -0.0531},
      {"sequence": "RRIRPRPPRLPRPRPRPMDRPRP", "shrunken log2 fold change": 0.247},
      {"sequence": "RRIRWRPPRLPRPRPRPFFQPRP", "shrunken log2 fold change": 0.329},
      {"sequence": "RRIRDRPPRLPRPRPRPGFLPRP", "shrunken log2 fold change": 0.368},
      {"sequence": "RRIRWRPPRLPRPRPRPSLFPRP", "shrunken log2 fold change": 0.114},
      {"sequence": "RRIRNRPPRLPRPRPRPCVYPRP", "shrunken log2 fold change": -0.215},
      {"sequence": "RRIRERPPRLPRPRPRPMDHPRP", "shrunken log2 fold change": -0.0102},
      {"sequence": "RRIRLRPPRLPRPRPRPYHGPRP", "shrunken log2 fold change": -0.278},
      {"sequence": "RRIRYRPPRLPRPRPRPHLMPRP", "shrunken log2 fold change": -0.126},
      {"sequence": "RRIRQRPPRLPRPRPRPCRKPRP", "shrunken log2 fold change": 0.0642},
      {"sequence": "RRIRTRPPRLPRPRPRPEQAPRP", "shrunken log2 fold change": 0.173},
      {"sequence": "RRIRCRPPRLPRPRPRPLEYPRP", "shrunken log2 fold change": -0.0414},
      {"sequence": "RRIRNRPPRLPRPRPRPWWYPRP", "shrunken log2 fold change": -0.361},
      {"sequence": "RRIRMRPPRLPRPRPRPYMHPRP", "shrunken log2 fold change": -0.0641},
      {"sequence": "RRIRARPPRLPRPRPRPGTYPRP", "shrunken log2 fold change": -0.257},
      {"sequence": "RRIRVRPPRLPRPRPRPLDCPRP", "shrunken log2 fold change": -0.0035},
      {"sequence": "RRIRNRPPRLPRPRPRPPEEPRP", "shrunken log2 fold change": -0.032},
      {"sequence": "RRIRARPPRLPRPRPRPAWQPRP", "shrunken log2 fold change": 0.626},
      {"sequence": "RRIRPRPPRLPRPRPRPENTPRP", "shrunken log2 fold change": 0.11},
      {"sequence": "RRIRWRPPRLPRPRPRPVDFPRP", "shrunken log2 fold change": 0.0271},
      {"sequence": "RRIRIRPPRLPRPRPRPIHDPRP", "shrunken log2 fold change": 2.93},
      {"sequence": "RRIRNRPPRLPRPRPRPFIYPRP", "shrunken log2 fold change": -0.856},
      {"sequence": "RRIRTRPPRLPRPRPRPYVLPRP", "shrunken log2 fold change": -0.321},
      {"sequence": "RRIRLRPPRLPRPRPRPMRFPRP", "shrunken log2 fold change": 0.0595},
      {"sequence": "RRIRMRPPRLPRPRPRPSYQPRP", "shrunken log2 fold change": -0.115},
      {"sequence": "RRIRERPPRLPRPRPRPNKKPRP", "shrunken log2 fold change": -0.187},
      {"sequence": "RRIRERPPRLPRPRPRPEESPRP", "shrunken log2 fold change": 0.148},
      {"sequence": "RRIRHRPPRLPRPRPRPWYLPRP", "shrunken log2 fold change": -0.748},
      {"sequence": "RRIRCRPPRLPRPRPRPVSIPRP", "shrunken log2 fold change": -0.549},
      {"sequence": "RRIRERPPRLPRPRPRPLDKPRP", "shrunken log2 fold change": -0.114},
      {"sequence": "RRIRDRPPRLPRPRPRPSSVPRP", "shrunken log2 fold change": -0.0994},
      {"sequence": "RRIRQRPPRLPRPRPRPACKPRP", "shrunken log2 fold change": -0.0465},
      {"sequence": "RRIRHRPPRLPRPRPRPLKWPRP", "shrunken log2 fold change": -0.0708},
      {"sequence": "RRIRPRPPRLPRPRPRPWERPRP", "shrunken log2 fold change": 0.0097},
      {"sequence": "RRIRYRPPRLPRPRPRPAWMPRP", "shrunken log2 fold change": -0.0583},
      {"sequence": "RRIRRRPPRLPRPRPRPHIKPRP", "shrunken log2 fold change": -0.43},
      {"sequence": "RRIRERPPRLPRPRPRPAAEPRP", "shrunken log2 fold change": 0.0581},
      {"sequence": "RRIRVRPPRLPRPRPRPCCMPRP", "shrunken log2 fold change": -0.181},
      {"sequence": "RRIRKRPPRLPRPRPRPHVFPRP", "shrunken log2 fold change": 0.015},
      {"sequence": "RRIRSRPPRLPRPRPRPQDVPRP", "shrunken log2 fold change": -0.277},
      {"sequence": "RRIRDRPPRLPRPRPRPEQNPRP", "shrunken log2 fold change": 0.517},
      {"sequence": "RRIRNRPPRLPRPRPRPVRWPRP", "shrunken log2 fold change": 0.703},
      {"sequence": "RRIRWRPPRLPRPRPRPPVNPRP", "shrunken log2 fold change": 0.13},
      {"sequence": "RRIRVRPPRLPRPRPRPMVVPRP", "shrunken log2 fold change": -0.0329},
      {"sequence": "RRIRVRPPRLPRPRPRPCMCPRP", "shrunken log2 fold change": 0.00286},
      {"sequence": "RRIRGRPPRLPRPRPRPEVVPRP", "shrunken log2 fold change": 0.918},
      {"sequence": "RRIRNRPPRLPRPRPRPDGMPRP", "shrunken log2 fold change": 0.0319},
      {"sequence": "RRIRLRPPRLPRPRPRPYRLPRP", "shrunken log2 fold change": -0.0305},
      {"sequence": "RRIRFRPPRLPRPRPRPFRCPRP", "shrunken log2 fold change": -0.227},
      {"sequence": "RRIRERPPRLPRPRPRPRIKPRP", "shrunken log2 fold change": -0.598},
      {"sequence": "RRIRNRPPRLPRPRPRPIKCPRP", "shrunken log2 fold change": -0.0141},
      {"sequence": "RRIRERPPRLPRPRPRPEWVPRP", "shrunken log2 fold change": 0.241},
      {"sequence": "RRIRLRPPRLPRPRPRPIAEPRP", "shrunken log2 fold change": 0.591},
      {"sequence": "RRIRWRPPRLPRPRPRPTCDPRP", "shrunken log2 fold change": 0.388}
    ]}
  ]
}
